In assay [1] the test system is estrogen receptor expressing human breast cancer cell lines. It counts as cell-based.
Description: Profiles for untreated (filled) and estrogen treated cells (unfilled) infected with the Ad-25ERE-GFP adenovirus are shown.
To assay estrogen responsiveness, cells were cultured in estrogen-free medium (phenol red-free RPMI1640 or DMEM/F12 medium (Life Technologies, Rockville, Md.) supplemented with charcoal/dextran treated fetal bovine serum (cd FBS; 5%) (Hyclone, Logan, Utah)) for 7 days. The cells were tested in fresh estrogen-free medium or fresh estrogen-free medium supplemented with 10 nM estradiol or 10 μM 4-hydroxy-tamoxifen. Cells were collected after 16-24 hours of hormone treatment.
For fluorescence microscopy analysis breast cancer cell lines were infected with Ad-25ERE-GFP virus at a MOI (multiplicity of infection) of ˜100 and treated with hormones as described above.
By infecting mammary epithelial cells with the Ad-25ERE-GFP adenovirus, it was possible to isolate ER+ estrogen responsive cells based on GFP expression. […] Ad-25ERE-GFP was then used to infect various estrogen receptor expressing human breast cancer cell lines in the presence of estrogen or tamoxifen or in the absence of hormone (FIG. 1B).
A further assay relates to MCF10A cells. In words: Colony assay with lipocalin 2 conditioned medium. It counts as cell-based, human. As to conditions: conditioned medium from cells expressing lipocalin 2 vs GFP, seven days of culture. On the procedure:
(§1) FIG. 4 is a bar graph showing the number of colonies that were obtained after culturing estrogen receptor expressing 747D breast cancer cells and estrogen receptor non-expressing MCF10A normal immortalized mammary epithelial cells with conditioned medium from […] cells recombinantly expressing either GFP (“GEP”) or lipocalin 2 (“LIPO”). The experiments were carried out in the wells of 6-well tissue culture plates. Data, which are expressed as “Colonies/well”, from experiments carried out in medium supplemented with 5% fetal bovine serum (“5% FBS”) or 0.2% fetal bovine serum (“0.2% FBS”) are shown.
(§2) For experiments to test for cell growth regulatory activity in secreted lipocalin 2, conditioned medium was generated by infecting COS7 cells with replication-defective adenoviruses expressing either GFP or lipocalin 2. Filtered medium collected 3-4 days after infection was applied to T47 or MCF10A cells. Colonies were visualized by crystal violet staining after seven days of culture.
(§3) Lipocalin 2 is a secreted protein and could thus be a paracrine factor expressed by NER+ cells that affects the surrounding mammary epithelial cells. In order to determine the effect of lipocalin 2 expression on mammary cell growth, colony growth assays were performed in various ER− and ER+ breast cancer cell lines and in MCF10A cells (FIG. 3D). […]

In the next assay the test system is T47D cells. In words: Colony assay with lipocalin 2 conditioned medium. As to conditions: conditioned medium from cells expressing lipocalin 2 vs GFP, seven days of culture. It is filed as cell-based, human. On the procedure:
as §1, §2, §3

Assay [2] concerns ER+ breast cancer cell lines (MCF-7 and T47D). Description: Colony assay after transfection with lipocalin 2 expression vector (pCEP4-lipocalin-HA), hygromycin selection. It is filed as cell-based, human. As to conditions: lipocalin 2 expression vs control vector pCEP4; 2 weeks hygromycin selection; crystal violet staining. The text has this:
(§4) FIG. 3D is a bar graph showing the numbers of colonies that were obtained after drug (hygromycin) selection (for 2 weeks) of estrogen receptor (“ER”) expressing (“Positive”) MCF-7 and T47D breast cancer cells, estrogen receptor non-expressing (“Negative”) BT549 and MTA-MB-435S breast cancer cells, and estrogen receptor non-expressing (“Negative”) MCF10A normal immortalized mammary epithelial cells that had all been transfected with either a control expression vector (“CEP”) or an expression vector containing cDNA encoding human lipocalin 2 fused at its C-terminus to a double hemagglutinin tag (“LIPO”). The experiments were carried out in T25 tissue culture flasks and the data are expressed as the number of “Colonies/T25 flask”.
(§5) cDNA encoding human lipocalin 2 was amplified by PCR and the isolated PCR product was cloned into the pCEP4 (Invitrogen, Carlsbad, Calif.). The resulting vector (pCEP4-lipocalin-HA) expresses lipocalin-2 with a double hemaglutinnin (HA) tag at its C-terminus. For colony assays, cells were transfected with pCEP4 (control) or pCEP4-lipocalin-HA using FuGene6 (Roche, Indianapolis, Ind.). Transfectants were selected in hygromycin-containing medium for 2 weeks after which colonies were visualized by crystal violet staining. Expression of the lipocalin 2-HA fusion protein was confirmed by western blot analysis (using an antibody specific for HA (Covance, Richmond, Calif.)) of cell lysate and medium from T47D cells transfected with pCEP4 or pCEP4-lipocalin-HA constructs.
(§6) Lipocalin 2 is a secreted protein and could thus be a paracrine factor expressed by NER+ cells that affects the surrounding mammary epithelial cells. In order to determine the effect of lipocalin 2 expression on mammary cell growth, colony growth assays were performed in various ER− and ER+ breast cancer cell lines and in MCF10A cells (FIG. 3D). […] In MCF10A immortalized ER− normal mammary epithelial cells a small increase in the number of colonies (18 vs. 7 colonies) was also observed following lipocalin 2 transfection (FIG. 3D). […]

For assay [3], the system named is MCF10A immortalized ER- normal mammary epithelial cells. Described as above. It is filed as cell-based, human. As to conditions: following lipocalin 2 transfection (control vector: 7 colonies), T25 flask.
Description: as §4, §5, §6

The test system of assay [4] is ER- breast cancer cell line BT549. The description is as above. It counts as cell-based, human. To be noted: lipocalin 2 expression vs control vector pCEP4, 2 weeks hygromycin selection.
Description: as §4, §5, §6

For the molecule `C[C@]12CC[C@@H]3c4ccc(O)cc4CC[C@H]3[C@@H]1CC[C@@H]2O` [estrogen, estradiol], in assay [1], the GFP expression entry is listed as “high GFP expression”.

B1: lipocalin 2: Secreted human protein; expressed from pCEP4-lipocalin-HA with C-terminal double hemagglutinin tag, or supplied in conditioned medium (protein, UniProt P80188 21-198, looked up)
Neutrophil …: QDSTSDLIPAPPLSKVPLQQNFQDNQFQGKWYVVGLAGNAILREDKDPQKMYATIYELKEDKSYNVTSVLFRKKKCDYWIRTFVPGCQPGEFTLGNIKSYPGLTSYLVRVVSTNYNQHAMVFFKKVSQNREYFKITLYGRTKELTSELKENFIRFSKSLGLPENHIVFPVPIDQCIDG
modifications: C-terminal double HA tag
notes: Secreted human protein; expressed from pCEP4-lipocalin-HA with C-terminal double hemagglutinin tag, or supplied in conditioned medium
B1: the “growth (colonies) with exogenous lipocalin 2” value is given as “enhanced” in the assay on MCF10A cells and “inhibited” in the assay on T47D cells. Moreover, the colony numbers entry was “dramatically suppressed colony numbers” in assay [2] and “small but significant increase in colony numbers” in assay [4]. In assay [3], this molecule returned a number of colonies of 18 colonies.

(Values after patent US20050064420A1, “Methods for identifying, isolating, and controlling the growth of estrogen-responsive cells” (Dana-Farber Cancer Institute, Inc., priority 2001, published 2005).)
